T1: human BCMA (human, UniProt Q02223 1-184)
T1 construct: whole, on cells; also called hBCMA; TNFRSF17
T1 sequence (looked up): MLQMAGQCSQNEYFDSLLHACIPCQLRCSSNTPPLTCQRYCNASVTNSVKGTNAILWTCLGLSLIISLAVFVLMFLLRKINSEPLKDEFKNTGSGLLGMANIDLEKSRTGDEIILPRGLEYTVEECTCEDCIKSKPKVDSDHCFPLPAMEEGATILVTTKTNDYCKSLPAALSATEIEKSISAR


Columns and labels:
human BCMA [1] = target: T1, human BCMA; assay: FACS on NCI-H929 cells
cynomolgus monkey BCMA = target: T2, cynomolgus monkey BCMA (cynomolgus monkey, UniProt A0A2K5UD97 1-183); assay: FACS on HEK293T/cyno BCMA cells
T2 construct: whole, on cells; also called cyno BCMA
Method: (§1) This example is intended to investigate the binding activity of anti-BCMA HCAb antibodies to human and cynomolgus monkey BCMAs. […] Specifically, HEK293T/hBCMA cells and HEK293T/cyno BCMA cells were digested and resuspended in a DMEM complete medium. In addition, NCI-H929 cell suspension was collected. The density of each of the three cells was adjusted to 1×10⁶ cells/mL. […] The cells were incubated at 4° C. for 1 h away from light. Thereafter, the cells in each well were rinsed twice with 100 μL of pre-cooled PBS, and centrifuged at 500 g at 4° C. for 5 min, and then the supernatant was discarded. […] The cells in each well were rinsed twice with 100 μL of pre-cooled PBS, and centrifuged at 500 g at 4° C. for 5 min, and then the supernatant was discarded. Finally, the cells in each well were resuspended in 200 μL of pre-cooled PBS. Fluorescence signal values were read using a BD FACS CANTOII flow cytometer or an ACEA NovoCyte flow cytometer, and the data were processed and analyzed using FlowJo v10 (FlowJo, LLC) software. The data were processed and analyzed by plotting using GraphPad Prism 8 software, and binding curves of the antibodies to target cells, EC₅₀ values and other parameters were obtained through four-parameter nonlinear fitting.

human BCMA [2] = target: T1, human BCMA; assay: FACS on HEK293T/hBCMA cells, Experiment 2
Method: as §1

T2 sequence (A0A2K5UD97 entry or part of it): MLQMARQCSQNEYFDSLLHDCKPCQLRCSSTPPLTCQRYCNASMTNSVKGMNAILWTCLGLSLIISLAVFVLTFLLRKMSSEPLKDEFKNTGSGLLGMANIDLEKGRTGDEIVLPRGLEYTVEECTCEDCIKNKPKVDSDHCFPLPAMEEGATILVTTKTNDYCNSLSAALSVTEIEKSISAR

Row | Binder | EC50 (human BCMA [1]) | Maximum MFI (human BCMA [1]) | Maximum MFI (cynomolgus monkey BCMA) | EC50 (human BCMA [2]) | Maximum MFI (human BCMA [2])
1 | PR002892 (bispecific antibody, human IgG1, lambda, L234A L235A) light: QAVVTQEPSLTVSPGGTVTLTCRSSTGAVTTSNYANWVQQKPGQAPRGLIGGTNKRAPWTPARFSGSLLGDKAALTLLGAQPEDEAEYFCALWYSNLWVFGGGTKLTVLGQPKAAPSVTLFPPSSEELQANKATLVCLISDFYPGAVTVAWKADSSPVKAGVETTTPSKQSNNKYAASSYLSLTPEQWKSHRSYSCQVTHEGSTVEKTVAPTECS heavy: not shown EVQLVETGGGLIQPGGSLRLSCAASGFTVSDNYMTWVRQAPGKGLEWVSVIFSGGNTYYADSVKGRFTISRDNAKNTLYLQMNSLRAEDTALYYCARRNYDDTRGTDVFDIWGQGTMVTVSSGGGGSEVQLVETGGGLIQPGGSLRLSCAASGFTVSDNYMTWVRQAPGKGLEWVSVIFSGGNTYYADSVKGRFTISRDNAKNTLYLQMNSLRAEDTALYYCARRNYDDTRGTDVFDIWGQGTMVTVSSASEPKSSDKTHTCPPCPAPEAAGGPSVFLFPPKPKDTLMISRTPEVTCVVVDVSHEDPEVKFNWYVDGVEVHNAKTKPREEQYNSTYRVVSVLTVLHQDWLNGKEYKCKVSNKALPAPIEKTISKAKGQPREPQVCTLPPSREEMTKNQVSLSCAVKGFYPSDIAVEWESNGQPENNYKTTPPVLDSDGSFFLVSKLTVDKSRWQQGNVFSCSVMHEALHNHYTQKSLSLSPGK | 4.27 nM | 4360 | 15000 | 0.767 nM | 15500
2 | PR002898 (bispecific antibody, human IgG1, lambda, L234A L235A) light: QAVVTQEPSLTVSPGGTVTLTCRSSTGAVTTSNYANWVQQKPGQAPRGLIGGTNKRAPWTPARFSGSLLGDKAALTLLGAQPEDEAEYFCALWYSNLWVFGGGTKLTVLGQPKAAPSVTLFPPSSEELQANKATLVCLISDFYPGAVTVAWKADSSPVKAGVETTTPSKQSNNKYAASSYLSLTPEQWKSHRSYSCQVTHEGSTVEKTVAPTECS heavy: not shown EVQLVETGGGLIQPGGSLRLSCAASGFTVSDNYMTWVRQAPGKGLEWVSVIFSGGNTYYADSVKGRFTISRDNAKNTLYLQMNSLRAEDTALYYCARRNYDDTRGTDVFDIWGQGTMVTVSSGSEVQLVETGGGLIQPGGSLRLSCAASGFTVSDNYMTWVRQAPGKGLEWVSVIFSGGNTYYADSVKGRFTISRDNAKNTLYLQMNSLRAEDTALYYCARRNYDDTRGTDVFDIWGQGTMVTVSSASEPKSSDKTHTCPPCPAPEAAGGPSVFLFPPKPKDTLMISRTPEVTCVVVDVSHEDPEVKFNWYVDGVEVHNAKTKPREEQYNSTYRVVSVLTVLHQDWLNGKEYKCKVSNKALPAPIEKTISKAKGQPREPQVCTLPPSREEMTKNQVSLSCAVKGFYPSDIAVEWESNGQPENNYKTTPPVLDSDGSFFLVSKLTVDKSRWQQGNVFSCSVMHEALHNHYTQKSLSLSPGK | 1.94 nM | 3730 | 8190 | 0.791 nM | 12600
3 | PR002326 (bispecific antibody, human IgG1, lambda, L234A L235A) light: QAVVTQEPSLTVSPGGTVTLTCRSSTGAVTTSNYANWVQQKPGQAPRGLIGGTNKRAPWTPARFSGSLLGDKAALTLLGAQPEDEAEYFCALWYSNLWVFGGGTKLTVLGQPKAAPSVTLFPPSSEELQANKATLVCLISDFYPGAVTVAWKADSSPVKAGVETTTPSKQSNNKYAASSYLSLTPEQWKSHRSYSCQVTHEGSTVEKTVAPTECS heavy: EVQLLESGGGLVQPGGSLRLSCAASGFTFSTYAMNWVRQAPGKGLEWVSRIRSKYNNYATYYADSVKDRFTISRDDSKSTLYLQMNSLRAEDTAVYYCVRHGNFGNSYVSWFAYWGQGTLVTVSSASTKGPSVFPLAPSSKSTSGGTAALGCLVKDYFPEPVTVSWNSGALTSGVHTFPAVLQSSGLYSLSSVVTVPSSSLGTQTYICNVNHKPSNTKVDKKVEPKSCDKTHTCPPCPAPEAAGGPSVFLFPPKPKDTLMISRTPEVTCVVVDVSHEDPEVKFNWYVDGVEVHNAKTKPREEQYNSTYRVVSVLTVLHQDWLNGKEYKCKVSNKALGAPIEKTISKAKGQPREPQVYTLPPCREEMTKNQVSLWCLVKGFYPSDIAVEWESNGQPENNYKTTPPVLDSDGSFFLYSKLTVDKSRWQQGNVFSCSVMHEALHNHYTQKSLSLSPGK EVQLVETGGGLIQPGGSLRLSCAASGFTVSSNYMTWVRQAPGKGLEWVSVIFSGGSTYYADSVKGRFTISRDNSKNTLYLQMNSLRAEDTAVYYCARRIAVAGHDVFDIWGQGTMVTVSSRTGGGGSGGGGSGGGGSKLEVQLVETGGGLIQPGGSLRLSCAASGFTVSDNYMTWVRQAPGKGLEWVSVIFSGGNTYYADSVKGRFTISRDNAKNTLYLQMNSLRAEDTALYYCARRNYDDTRGTDVFDIWGQGTMVTVSSASEPKSSDKTHTCPPCPAPEAAGGPSVFLFPPKPKDTLMISRTPEVTCVVVDVSHEDPEVKFNWYVDGVEVHNAKTKPREEQYNSTYRVVSVLTVLHQDWLNGKEYKCKVSNKALGAPIEKTISKAKGQPREPQVCTLPPSREEMTKNQVSLSCAVKGFYPSDIAVEWESNGQPENNYKTTPPVLDSDGSFFLVSKLTVDKSRWQQGNVFSCSVMHEALHNHYTQKSLSLSPGK | 3.54 nM | 60000 | 6440 |  | 

The next lines start with the values.

Row | EC50 (human BCMA [1]) | Maximum MFI (human BCMA [1]) | Maximum MFI (cynomolgus monkey BCMA) | EC50 (human BCMA [2]) | Maximum MFI (human BCMA [2]) | Binder
4 | 4.11 nM | 4190 | 26600 |  | 22100 | PR002950 (bispecific antibody, human IgG1, lambda, L234A L235A) light: QAVVTQEPSLTVSPGGTVTLTCRSSTGAVTTSNYANWVQQKPGQAPRGLIGGTNKRAPWTPARFSGSLLGDKAALTLLGAQPEDEAEYFCALWYSNLWVFGGGTKLTVLGQPKAAPSVTLFPPSSEELQANKATLVCLISDFYPGAVTVAWKADSSPVKAGVETTTPSKQSNNKYAASSYLSLTPEQWKSHRSYSCQVTHEGSTVEKTVAPTECS heavy: not shown EVQLVETGGGLIQPGGSLRLSCAASGFTVSDNYMTWVRQAPGKGLEWVSVIFSGGNTYYADSVKGRFTISRDNAKNTLYLQMNSLRAEDTALYYCARRNYDDTRGTDVFDIWGQGTMVTVSSGGGGSEVQLVETGGGLIQPGGSLRLSCAASGFTVSDNYMTWVRQAPGKGLEWVSVIFSGGNTYYADSVKGRFTISRDNAKNTLYLQMNSLRAEDTALYYCARRNYDDTRGTDVFDIWGQGTMVTVSSASEPKSSDKTHTCPPCPAPEAAGGPSVFLFPPKPKDTLMISRTPEVTCVVVDVSHEDPEVKFNWYVDGVEVHNAKTKPREEQYNSTYRVVSVLTVLHQDWLNGKEYKCKVSNKALPAPIEKTISKAKGQPREPQVCTLPPSREEMTKNQVSLSCAVKGFYPSDIAVEWESNGQPENNYKTTPPVLDSDGSFFLVSKLTVDKSRWQQGNVFSCSVMHEALHNHYTQKSLSLSPGK
5 | 17.1 nM | 78000 | 7610 |  |  | PR002313 (bispecific antibody, human IgG1, lambda, L234A L235A) light: QAVVTQEPSLTVSPGGTVTLTCRSSTGAVTTSNYANWVQQKPGQAPRGLIGGTNKRAPWTPARFSGSLLGDKAALTLLGAQPEDEAEYFCALWYSNLWVFGGGTKLTVLGQPKAAPSVTLFPPSSEELQANKATLVCLISDFYPGAVTVAWKADSSPVKAGVETTTPSKQSNNKYAASSYLSLTPEQWKSHRSYSCQVTHEGSTVEKTVAPTECS heavy: EVQLLESGGGLVQPGGSLRLSCAASGFTFSTYAMNWVRQAPGKGLEWVSRIRSKYNNYATYYADSVKDRFTISRDDSKSTLYLQMNSLRAEDTAVYYCVRHGNFGNSYVSWFAYWGQGTLVTVSSASTKGPSVFPLAPSSKSTSGGTAALGCLVKDYFPEPVTVSWNSGALTSGVHTFPAVLQSSGLYSLSSVVTVPSSSLGTQTYICNVNHKPSNTKVDKKVEPKSCDKTHTCPPCPAPEAAGGPSVFLFPPKPKDTLMISRTPEVTCVVVDVSHEDPEVKFNWYVDGVEVHNAKTKPREEQYNSTYRVVSVLTVLHQDWLNGKEYKCKVSNKALGAPIEKTISKAKGQPREPQVYTLPPCREEMTKNQVSLWCLVKGFYPSDIAVEWESNGQPENNYKTTPPVLDSDGSFFLYSKLTVDKSRWQQGNVFSCSVMHEALHNHYTQKSLSLSPGK EVQLLESGGGLVQPGGSLRLSCAASGFTFSSYAMIWVRQAPGKGLEWVSGISESGGSTYYADSVKGRFTISRDNSKNTLYLQMNSLRAEDTAVYFCVKDLDDILTGYYKDYWGQGTLVTVSSRTGGGGSGGGGSGGGGSKLEVQLVETGGGLIQPGGSLRLSCAASGFPVSSNYMSWVRQAPGKGLEWVSVIFSGGRTYYADSVKGRFTISRDNSKNTLYLQMNSLRAEDTAVYYCARRNWIDGRDAFDIWGQGTMVTVSSASEPKSSDKTHTCPPCPAPEAAGGPSVFLFPPKPKDTLMISRTPEVTCVVVDVSHEDPEVKFNWYVDGVEVHNAKTKPREEQYNSTYRVVSVLTVLHQDWLNGKEYKCKVSNKALGAPIEKTISKAKGQPREPQVCTLPPSREEMTKNQVSLSCAVKGFYPSDIAVEWESNGQPENNYKTTPPVLDSDGSFFLVSKLTVDKSRWQQGNVFSCSVMHEALHNHYTQKSLSLSPGK
6 | 6.89 nM | 58900 | 7810 |  |  | PR002328 (bispecific antibody, human IgG1, lambda, L234A L235A) light: QAVVTQEPSLTVSPGGTVTLTCRSSTGAVTTSNYANWVQQKPGQAPRGLIGGTNKRAPWTPARFSGSLLGDKAALTLLGAQPEDEAEYFCALWYSNLWVFGGGTKLTVLGQPKAAPSVTLFPPSSEELQANKATLVCLISDFYPGAVTVAWKADSSPVKAGVETTTPSKQSNNKYAASSYLSLTPEQWKSHRSYSCQVTHEGSTVEKTVAPTECS heavy: EVQLLESGGGLVQPGGSLRLSCAASGFTFSTYAMNWVRQAPGKGLEWVSRIRSKYNNYATYYADSVKDRFTISRDDSKSTLYLQMNSLRAEDTAVYYCVRHGNFGNSYVSWFAYWGQGTLVTVSSASTKGPSVFPLAPSSKSTSGGTAALGCLVKDYFPEPVTVSWNSGALTSGVHTFPAVLQSSGLYSLSSVVTVPSSSLGTQTYICNVNHKPSNTKVDKKVEPKSCDKTHTCPPCPAPEAAGGPSVFLFPPKPKDTLMISRTPEVTCVVVDVSHEDPEVKFNWYVDGVEVHNAKTKPREEQYNSTYRVVSVLTVLHQDWLNGKEYKCKVSNKALGAPIEKTISKAKGQPREPQVYTLPPCREEMTKNQVSLWCLVKGFYPSDIAVEWESNGQPENNYKTTPPVLDSDGSFFLYSKLTVDKSRWQQGNVFSCSVMHEALHNHYTQKSLSLSPGK EVQLVETGGGLIQPGGSLRLSCAASGFTVSSNYMTWVRQAPGKGLEWVSVIFSGGSTYYADSVKGRFTISRDNSKNTLYLQMNSLRAEDTAVYYCARRIAVAGHDVFDIWGQGTMVTVSSRTGGGGSGGGGSGGGGSGGGGSGGGGSKLEVQLVETGGGLIQPGGSLRLSCAASGFTVSDNYMTWVRQAPGKGLEWVSVIFSGGNTYYADSVKGRFTISRDNAKNTLYLQMNSLRAEDTALYYCARRNYDDTRGTDVFDIWGQGTMVTVSSASEPKSSDKTHTCPPCPAPEAAGGPSVFLFPPKPKDTLMISRTPEVTCVVVDVSHEDPEVKFNWYVDGVEVHNAKTKPREEQYNSTYRVVSVLTVLHQDWLNGKEYKCKVSNKALGAPIEKTISKAKGQPREPQVCTLPPSREEMTKNQVSLSCAVKGFYPSDIAVEWESNGQPENNYKTTPPVLDSDGSFFLVSKLTVDKSRWQQGNVFSCSVMHEALHNHYTQKSLSLSPGK

From patent publication US20230322953A1 (HARBOUR BIOMED SHANGHAI, published 2023)
